The text below walks through data of PMC3702670 (Nature structural & molecular biology, 2013).

Numbering of substitutions follows the chain as printed. Read-outs that look alike come from different tables or passages of the source.

The target in data set [1] is T1, GR DBD WT (rat, UniProt P06536 440-525). Description: NMR.
For data set [2], the target named is T1, GR DBD WT. Description: SPR. (In general: In SPR one partner is held on a chip, and binding of the other changes the refractive index at the surface.)
Data set [3] concerns the target T1, GR DBD WT. The data set can be described thus: NMR. This is another data set of the same source.
Data set [4] concerns the target T2, GR DBD A477T (rat, UniProt P06536 440-525, A477T). The data set can be described thus: NMR.
The data set “[…]” concerns the molecule itself. The data set can be described thus: […].
The data set “SPR” concerns the molecule itself. The data set can be described thus: SPR.
Data set [5] concerns the target T2, GR DBD A477T. The data set can be described thus: NMR. This is another data set of the same source.
The target in data set [6] is T1, GR DBD WT. Description: NMR. This is another data set of the same source.

B1: Gilz GBS (dsDNA)
DNA 1: GTACAGAACATTGGGTTCCTCGAC
DNA 2: GTCGAGGAACCCAATGTTCTGTAC
As for B1, in the data set with GR DBD WT [1], the binding result is given as “binds”.

B2: Pal-R GBS (dsDNA)
DNA 1: GTACAGAACATTTTGTTCTTCGAC
DNA 2: GTCGAAGAACAAAATGTTCTGTAC
B2: the binding result with GR DBD WT [2] is “binds”.

B3: Fkbp5 GBS (dsDNA)
DNA 1: GTACAGAACAGGGTGTTCTTCGAC
DNA 2: GTCGAAGAACACCCTGTTCTGTAC
Consider B3, for which the binding result in the data set with GR DBD WT [3] and with GR DBD A477T [4] was “binds” throughout.

B4: rat glucocorticoid receptor DNA binding domain, wild type (domain or fragment)
chain: CLVCSDEASGCHYGVLTCGSCKVFFKRAVEGQHNYLCAGRNDCIIDKIRRKNCPACRYRKCLQAGMNLEARKTKKKIKGIQQATAG
Take B4: in data set […], the binding result is “binds”.

B5: rat glucocorticoid receptor DNA binding domain, [change] mutant (domain or fragment)
chain: B4 chain with A38T
B5: the binding result in “SPR” is on record as “binds”.

B6: Sgk-ggg GBS (dsDNA)
DNA 1: GTACAGAACAGGGTGTCCGTCGAC
DNA 2: GTCGACGGACACCCTGTTCTGTAC
As for B6, the binding result in the data set with GR DBD WT [3] is “binds”.

B7: Sgk GBS (dsDNA)
DNA 1: GTACAGAACATTTTGTCCGTCGAC
DNA 2: GTCGACGGACAAAATGTTCTGTAC
In the case of B7, the binding result with GR DBD A477T [5] and in the data set with GR DBD WT [3] was “binds” throughout.

B8: Pal-ttg GBS (dsDNA)
DNA 1: GTACAGAACATTGTGTTCTTCGAC
DNA 2: GTCGAAGAACACAATGTTCTGTAC
As to B8, the binding result with GR DBD WT [1] is “binds”.

B9: Gha GBS (dsDNA)
DNA 1: GTACGGAACATAATGTTCCTCGAC
DNA 2: GTCGAGGAACATTATGTTCCGTAC
For the molecule B9, the binding result with GR DBD WT [6] and with GR DBD A477T [5] was “binds” throughout.
